T1: human Natriuretic Peptide Receptor 1 (hNPR1) (human, UniProt P16066 33-473, limits assumed)
T1 construct: pannings used NPR1-hFc; also called NPR1-hFc
T1 sequence: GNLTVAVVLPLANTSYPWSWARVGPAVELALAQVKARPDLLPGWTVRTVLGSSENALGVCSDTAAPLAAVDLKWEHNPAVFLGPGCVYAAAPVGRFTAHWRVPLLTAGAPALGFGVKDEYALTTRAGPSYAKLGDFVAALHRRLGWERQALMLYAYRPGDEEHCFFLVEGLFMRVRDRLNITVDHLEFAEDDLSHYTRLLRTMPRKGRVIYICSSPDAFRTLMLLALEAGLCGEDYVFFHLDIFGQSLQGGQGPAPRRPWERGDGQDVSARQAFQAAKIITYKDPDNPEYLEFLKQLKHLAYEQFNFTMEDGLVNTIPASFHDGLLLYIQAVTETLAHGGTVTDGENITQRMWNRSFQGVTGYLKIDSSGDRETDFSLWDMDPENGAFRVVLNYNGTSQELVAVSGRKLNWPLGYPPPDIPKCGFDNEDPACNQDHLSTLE

T2: hNPR1-ANP complex (human, UniProt P01160 124-151, limits assumed)
T2 construct: hNPR1 antigen in the presence of ANP; also called hNPR1 + 100 nM ANP
T2 sequence: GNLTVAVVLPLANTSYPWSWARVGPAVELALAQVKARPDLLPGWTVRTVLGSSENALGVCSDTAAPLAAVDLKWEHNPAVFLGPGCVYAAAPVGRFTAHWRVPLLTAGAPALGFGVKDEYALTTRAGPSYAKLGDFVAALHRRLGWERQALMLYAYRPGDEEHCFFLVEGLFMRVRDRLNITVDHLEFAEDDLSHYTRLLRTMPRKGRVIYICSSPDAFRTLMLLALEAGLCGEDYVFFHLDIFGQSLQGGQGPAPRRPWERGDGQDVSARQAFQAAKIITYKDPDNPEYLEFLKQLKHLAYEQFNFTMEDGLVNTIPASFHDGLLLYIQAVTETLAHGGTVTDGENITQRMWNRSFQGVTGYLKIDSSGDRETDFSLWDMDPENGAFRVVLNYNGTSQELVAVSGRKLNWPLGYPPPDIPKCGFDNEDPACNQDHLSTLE
T2 sequence (peptide): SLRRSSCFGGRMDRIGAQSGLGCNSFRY

T3: rNPR1-ANP complex (rat, UniProt P01160 124-151 (human entry), limits assumed)
T3 construct: rNPR1 antigen in the presence of ANP; also called rNPR1 + 100 nM ANP
T3 sequence: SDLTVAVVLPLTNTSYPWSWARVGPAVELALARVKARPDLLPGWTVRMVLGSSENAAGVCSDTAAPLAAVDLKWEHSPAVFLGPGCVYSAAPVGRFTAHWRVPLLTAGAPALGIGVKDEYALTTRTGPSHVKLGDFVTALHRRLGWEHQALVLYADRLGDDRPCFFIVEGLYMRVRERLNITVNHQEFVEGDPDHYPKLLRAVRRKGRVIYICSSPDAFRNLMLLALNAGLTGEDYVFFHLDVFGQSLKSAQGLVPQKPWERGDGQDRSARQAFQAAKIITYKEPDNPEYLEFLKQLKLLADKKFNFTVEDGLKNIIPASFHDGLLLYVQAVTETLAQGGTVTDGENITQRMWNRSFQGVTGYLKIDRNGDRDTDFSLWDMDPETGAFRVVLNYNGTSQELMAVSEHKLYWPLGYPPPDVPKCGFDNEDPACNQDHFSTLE
T3 sequence (peptide): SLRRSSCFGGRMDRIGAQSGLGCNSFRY

T4: rat NPR1 (rNPR1) (rat, UniProt P18910 29-469, limits assumed)
T4 construct: Soluble antigen
T4 sequence: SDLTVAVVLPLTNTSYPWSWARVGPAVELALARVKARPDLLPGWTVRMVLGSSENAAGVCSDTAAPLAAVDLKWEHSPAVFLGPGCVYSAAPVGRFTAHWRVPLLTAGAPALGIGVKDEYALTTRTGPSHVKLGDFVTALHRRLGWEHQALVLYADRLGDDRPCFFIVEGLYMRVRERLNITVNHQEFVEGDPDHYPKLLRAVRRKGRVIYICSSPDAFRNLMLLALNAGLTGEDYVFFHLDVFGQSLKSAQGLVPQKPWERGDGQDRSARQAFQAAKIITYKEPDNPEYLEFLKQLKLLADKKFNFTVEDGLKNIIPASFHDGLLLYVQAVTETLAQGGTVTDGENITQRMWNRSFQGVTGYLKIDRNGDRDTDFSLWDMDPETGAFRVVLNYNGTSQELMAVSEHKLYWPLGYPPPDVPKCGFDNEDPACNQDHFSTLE


Legend:
[1] = biological target: T1, human Natriuretic Peptide Receptor 1 …; experiment: Octet, FabCys
hNPR1-ANP complex [2] = biological target: T2, hNPR1-ANP complex; experiment: Octet, FabCys
[3] = biological target: T1, human Natriuretic Peptide Receptor 1 …; experiment: SET, FabCys
hNPR1-ANP complex [4] = biological target: T2, hNPR1-ANP complex; experiment: SET, FabCys
rNPR1-ANP complex = biological target: T3, rNPR1-ANP complex; experiment: SET, FabCys
rat NPR1 (rNPR1) = biological target: T4, rat NPR1 (rNPR1); experiment: SET, FabCys

Kd [1]	Kd (hNPR1-ANP complex [2])	Kd [3]	Kd (hNPR1-ANP complex [4])	Kd (rNPR1-ANP complex)	Kd (rat NPR1 (rNPR1))	Binder
0.26 nM	0.19 nM	0.053 nM	0.074 nM			ZZ15 (FabCys format) (Fab, V domains shown, Monovalent FabCys) VH: EVQLLESGGGLVQPGGSLRLSCAASGFTFASYAITWVRQAPGKGLEWVSTISGSGVYTYYAESVKGRFTISRDNSKNTLYLQMNSLRAEDTAVYYCARPYLGDRRSYGFDHWGQGTLVTVSS VL: QSALTQPASVSGSPGQSITISCTGTSSDVGSYNLVSWYQQHPGKAPKLMIYEGSKRPSGVSNRFSGSKSGNTASLTISGLQAEDEADYYCSSYGFHIVVVVFGGGTKLTVL
				36 nM	52 nM	ZZ17 (FabCys format) (Fab, V domains shown, Monovalent FabCys) VH: EVQLLESGGGLVQPGGSLRLSCAASGFTFSDYAISWVRQAPGKGLEWVSSISGGGYHTQYAGSVKGRFTISRDNSKNTLYLQMNSLRAEDTAVYYCARPYLGDRRSYGFDHWGQGTLVTVSS VL: QSALTQPASVSGSPGQSITISCTGTSSDVGSYNLVSWYQQHPGKAPKLMIYEGSKRPSGVSNRFSGSKSGNTASLTISGLQAEDEADYYCSSYGFHIVVVVFGGGTKLTVL
0.14 nM	0.11 nM	0.04 nM	0.034 nM	51 nM	62 nM	ZZ16 (FabCys format) (Fab, V domains shown, Monovalent FabCys) VH: EVQLLESGGGLVQPGGSLRLSCAASGFTFGTYAMTWVRQAPGKGLEWVSSISASGYYANYAGSVKGRFTISRDNSKNTLYLQMNSLRAEDTAVYYCARPYLGDRRSYGFDHWGQGTLVTVSS VL: QSALTQPASVSGSPGQSITISCTGTSSDVGSYNLVSWYQQHPGKAPKLMIYEGSKRPSGVSNRFSGSKSGNTASLTISGLQAEDEADYYCSSYGFHIVVVVFGGGTKLTVL

From patent publication US20240052042A1 (Novartis, published 2024)
